Ends that are not written are not given here. * marks the point of attachment. Ser‑Gly linker = flexible serine-glycine linker, six amino acids long; Biotin = O=C1N[C@H]2[C@H](CS[C@H]2CCCCC(=O)*)N1

We go through 6 molecules from patent US20180172683A1 (published 2018).

The target in experiment [1] is T1, B-cell lymphoma extra-large protein (Bcl-xL), first 209 amino acids with N-terminal avitag (UniProt Q07817 1-209, biotin on the avitag (BirA biotin ligase); a non-biotinylated form was used as the excess competitor in solution in the off-rate assays).
T1 construct: range 1-209; Expressed in E. coli BL21(DE3); Used in solution (forward assays) or immobilized through biotin on streptavidin plates or beads (reverse assay, off-rate and HTSK experiments); not shown: His tag implied (pET24a NdeI/XhoI, Ni-NTA purification, anti-HIS probe)
Put plainly: radiolabeled HA-tagged peptide off-rate from immobilized Bcl-xL. As to the method: (§1) The radiolabeled peptides were allowed to bind to 30 pmol immobilized Bcl-xL for 1 hour in sample buffer (1×PBS, 1% (w/v) BSA, 0.1% (v/v) Tween 20, 10 μM biotin). The beads were magnetically separated, and washed 5× with sample buffer. The beads were resuspended in 1 mL of sample buffer containing 3 μM non-biotinylated Bcl-xL (˜100× molar excess relative to immobilized biotinylated Bcl-xL). At various time points, 100 μL of slurry was removed and the beads were magnetically separated and washed. The percent remaining at each time point was determined by dividing the counts per minute (cpm) on beads by total cpm (beads+washes). The peptide off-rate was determined by an exponential fit of the Percent counts on beads vs. Time (s).
The peptide ligands were made using a C-terminal HA tag, and affinity purified.

The target of experiment [2] is T1, B-cell lymphoma extra-large protein …. Put plainly: dissociation of radiolabeled construct from immobilized Bcl-xL with excess Bcl-xL in solution. As to the method:
as §1
(§2) The Kd for the peptides is measured by the equilibrium ELISA/AAMP assays (Table 1). The off-rate for these peptides was obtained by measuring the dissociation rate for radiolabeled peptide-mRNA fusions bound to immobilized Bcl-xL. The on-rate was calculated based on the equilibrium Kd measurements and the radiolabeled off-rate.

The target is the same in experiment [3]. Put plainly: equilibrium AMMP, monovalent model. As to the method: AMMP Assays. For the AMMP assays, 90 μL of each sample or standards was incubated with 30 μL of magnetic beads (12 μg of beads/mL) and fluorescein-labeled antibody (8 nM) in sample buffer for 1 hour. The experiment's run buffer was 1×PBS+1% (v/v) Tween-20+1% (v/v) heat-treated FBS (Invitrogen; FBS was heat treated for 15 minutes at 65° C. and filtered). BioScale Universal Detection Cartridges were used in performing all of the assays. The device was used per the manufacturer's instructions. The ligand of interest, capture ligand, target protein, and probe ligand used in example AMMP assays performed are highlighted in the table below.
A competing ligand of unknown Kd was incubated with the target and allowed to equilibrate. The target protein bound to the competing ligand is not anchored to the magnetic beads. Subsequent wash steps thereby […]. The Kd of interaction between the target protein and the competing ligand can then be determined by quantifying the amount of free target in solution.

Experiment [4] has the same target. Put plainly: equilibrium ELISA, monovalent model. As to the method:
(§3) After the capture ligand incubation, 100 μL of sample or standards were added in each well, and incubated for 1 hour at room temperature. Plates were washed, incubated with HRP-conjugated probe antibody (such as anti-HIS tag antibody) in sample buffer for 1 hour, washed, and incubated with TMB substrate (Thermo Scientific). Reactions were stopped after approximately 10 minutes with 2 M sulfuric acid, and the absorbance at 450 nm was measured via a plate reader (Molecular Devices). The ligand of interest, capture ligand, target protein, and probe ligand used in example ELISA assays performed are highlighted in the table below.
Enzymatic Kd Calculation Assay. The Kd values of ligands of interest were determined using a protocol modified from Friguet et al., Journal of immunological methods, 77, 305-319 (1985). The samples were prepared and analyzed by ELISA assay in a similar process as described above. The OD450 for the standards and their concentration values were fit to a four parameter logistic curve (standard curve). The concentration of the free Bcl-xL in solution (responsible for the signal) for each sample was calculated using the standard curve, and converted into percent of Bcl-xL bound by ligand in solution. For each ligand, the values for all the tested concentration of Bcl-xL and peptide in solution were fit simultaneously to the monovalent equilibrium model below to obtain the dissociation constant Kd (in which [C]EQ, [T]₀, [L]₀ represent the concentration of the target-ligand complex at equilibrium, the initial concentration of the target protein, and the initial concentration of the ligand, respectively).
The equilibrium assay is a modified version of the method described by Friguet et al., supra. The samples were prepared and analyzed by ELISA assay in a similar process as described above.

For experiment [5] the target is unchanged. The experiment can be described thus: equilibrium ELISA/AMMP (value of Table 1 given again).
Experiment [6] shares this target. Put plainly: equilibrium ELISA and AMMP, monovalent model, known [L]0.
Experiment [7] shares this target. Put plainly: calculated from the equilibrium Kd and the radiolabeled off-rate. As to the method:
as §2

Experiment [8] shares this target. Put plainly: equilibrium ELISA and AMMP, monovalent model, Kd and [L]0 fit simultaneously.
Experiment [9] has the same target. The experiment can be described thus: binding (equilibrium ELISA) Kd. As to the method: as §3, with “ELISA Assays. […] Plates were washed 3× with wash buffer (1×PBS+0.1% (v/v) Tween-20) and blocked with 1×PBS+5% (w/v) BSA for two hours. […] After” for “After”
Enzymatic Kd Calculation Assay. The Kd values of ligands of interest were determined using a protocol modified from Friguet et al., Journal of immunological methods, 77, 305-319 (1985). The samples were prepared and analyzed by ELISA assay in a similar process as described above. The OD450 for the standards and their concentration values were fit to a four parameter logistic curve (standard curve). The concentration of the free Bcl-xL in solution (responsible for the signal) for each sample was calculated using the standard curve, and converted into percent of Bcl-xL bound by ligand in solution. […]

B1: E1, radiolabeled in vitro translated peptide with C-terminal serine-glycine linker and HA tag (peptide)
peptide: MIETITIYNYKKAADHFSMSM-{Ser‑Gly linker-HA tag}
modifications: also: 35S-labeled methionine
notes: not shown: flexible serine-glycine linker, six amino acids long; HA tag
As for B1, the koff in experiment [1] was 7.4e-06 s⁻¹; in experiment [2], 1.2e-05 s⁻¹.

B2: D1, radiolabeled in vitro translated peptide with C-terminal serine-glycine linker and HA tag (peptide)
peptide: MIAISTIYNYKKAADHYAMTK-{Ser‑Gly linker-HA tag}
modifications: also: 35S-labeled methionine
notes: as for B1
In the case of B2, the koff in experiment [1] and in experiment [2] was 2e-06 s⁻¹ in each case.

B3: E2, radiolabeled in vitro translated construct used for the off-rate of Table 3 (peptide, not shown: small tags and cut ends)
peptide: MIETITIYKYKKAADHFSMSMGSK
modifications: also: 35S-labeled methionine, C-terminal extension: Ser-Gly linker and HA tag, or mRNA fusion
B3 gave a koff in [2] of 1.6e-05 s⁻¹.

B4: Peptide E2 (synthetic, biotin-labeled) (peptide)
peptide: MIETITIYKYKKAADHFSMSMGSK(Biotin)-NH2
modifications: N-terminus assumed
SMILES: CC[C@H](C)[C@H](NC(=O)[C@@H](NC(=O)[C@@H](NC(=O)[C@@H](NC(=O)[C@H](CCC(=O)O)NC(=O)[C@@H](NC(=O)[C@@H](N)CCSC)[C@@H](C)CC)[C@@H](C)O)[C@@H](C)CC)[C@@H](C)O)C(=O)N[C@@H](Cc1ccc(O)cc1)C(=O)N[C@@H](CCCCN)C(=O)N[C@@H](Cc1ccc(O)cc1)C(=O)N[C@@H](CCCCN)C(=O)N[C@@H](CCCCN)C(=O)N[C@@H](C)C(=O)N[C@@H](C)C(=O)N[C@@H](CC(=O)O)C(=O)N[C@@H](Cc1c[nH]cn1)C(=O)N[C@@H](Cc1ccccc1)C(=O)N[C@@H](CO)C(=O)N[C@@H](CCSC)C(=O)N[C@@H](CO)C(=O)N[C@@H](CCSC)C(=O)NCC(=O)N[C@@H](CO)C(=O)N[C@@H](CCCCNC(=O)CCCC[C@@H]1SC[C@@H]2NC(=O)N[C@@H]21)C(N)=O
notes: Solid phase Fmoc synthesis; also called E2 Pep
Turning to B4, the dissociation constant Kd in experiment [3] is 0.315 nM; in experiment [4], 0.29 nM; in experiment [5] it was 0.3 nM; in experiment [6] it was 0.3 nM; in experiment [8], 0.24 nM. Besides, the kon in [7] was 53000 M⁻¹ s⁻¹.

B5: Peptide E1 (synthetic, biotin-labeled) (peptide)
peptide: MIETITIYNYKKAADHFSMSMGSK(Biotin)-NH2
modifications: N-terminus assumed
SMILES: CC[C@H](C)[C@H](NC(=O)[C@@H](NC(=O)[C@@H](NC(=O)[C@@H](NC(=O)[C@H](CCC(=O)O)NC(=O)[C@@H](NC(=O)[C@@H](N)CCSC)[C@@H](C)CC)[C@@H](C)O)[C@@H](C)CC)[C@@H](C)O)C(=O)N[C@@H](Cc1ccc(O)cc1)C(=O)N[C@@H](CC(N)=O)C(=O)N[C@@H](Cc1ccc(O)cc1)C(=O)N[C@@H](CCCCN)C(=O)N[C@@H](CCCCN)C(=O)N[C@@H](C)C(=O)N[C@@H](C)C(=O)N[C@@H](CC(=O)O)C(=O)N[C@@H](Cc1c[nH]cn1)C(=O)N[C@@H](Cc1ccccc1)C(=O)N[C@@H](CO)C(=O)N[C@@H](CCSC)C(=O)N[C@@H](CO)C(=O)N[C@@H](CCSC)C(=O)NCC(=O)N[C@@H](CO)C(=O)N[C@@H](CCCCNC(=O)CCCC[C@@H]1SC[C@@H]2NC(=O)N[C@@H]21)C(N)=O
notes: Solid phase Fmoc synthesis; also called E1 Pep
In the case of B5, the Kd worked out at 0.039 nM in experiment [9]; 0.045 nM in [3]; 0.034 nM in experiment [4]; 0.039 nM in experiment [5]; 0.039 nM in [6]; 0.027 nM in [8]. The on-rate constant (kon) in experiment [7] was 310000 M⁻¹ s⁻¹.

B6: Peptide D1 (synthetic, biotin-labeled) (peptide)
peptide: MIAISTIYNYKKAADHYAMTKGSK(Biotin)-NH2
modifications: N-terminus assumed
SMILES: CC[C@H](C)[C@H](NC(=O)[C@H](C)NC(=O)[C@@H](NC(=O)[C@@H](N)CCSC)[C@@H](C)CC)C(=O)N[C@@H](CO)C(=O)N[C@H](C(=O)N[C@H](C(=O)N[C@@H](Cc1ccc(O)cc1)C(=O)N[C@@H](CC(N)=O)C(=O)N[C@@H](Cc1ccc(O)cc1)C(=O)N[C@@H](CCCCN)C(=O)N[C@@H](CCCCN)C(=O)N[C@@H](C)C(=O)N[C@@H](C)C(=O)N[C@@H](CC(=O)O)C(=O)N[C@@H](Cc1c[nH]cn1)C(=O)N[C@@H](Cc1ccc(O)cc1)C(=O)N[C@@H](C)C(=O)N[C@@H](CCSC)C(=O)N[C@H](C(=O)N[C@@H](CCCCN)C(=O)NCC(=O)N[C@@H](CO)C(=O)N[C@@H](CCCCNC(=O)CCCC[C@@H]1SC[C@@H]2NC(=O)N[C@@H]21)C(N)=O)[C@@H](C)O)[C@@H](C)CC)[C@@H](C)O
notes: Solid phase Fmoc synthesis; Also the capture ligand of the forward assays for peptide ligands; also called D1 Pep; D1 Peptide
As for B6, the Kd in experiment [9] came to 0.009 nM; in [3], 0.012 nM; in experiment [4] it was 0.007 nM; in experiment [5], 0.0085 nM; in experiment [6], 0.0085 nM; in experiment [8], 0.014 nM. Also, in experiment [7], the kon was 240000 M⁻¹ s⁻¹.
